# Measurements from patent publication US20190002506A1 (Dana-Farber, published 2019).
# Residue numbers refer to the chain shown, from its start. In names and notes the source's numbering stands. Numbered stars: 1 amine (or outer) side, 2 acyl side, 3 side chain; on linkers, the order of the positions; unused ones are H or OH. Bridge positions count the residues as written; N and C are the ends. Square brackets hold non-standard residues; d marks the D form. Ends that are not written are not given here. * marks the point of attachment. warhead 3 = D-nipecotic acid acylated with acrylic acid, in place of L21, C=CC(=O)N1CCC[C@@H](C(=O)*)C1; Nip(3R) = O=C([C@@H]1CCCN([*:1])C1)[*:2]; warhead 1 = not defined here; S5 = C=CCCC[C@](C)(N)C(=O)O; Acryloyl = C=CC(=O)*
# T1: Bfl-1 (Examples 1-4) (UniProt Q16548 1-153, limits assumed)
# T1 construct: also called 9×His-tagged Bfl-1
# T1 sequence (looked up): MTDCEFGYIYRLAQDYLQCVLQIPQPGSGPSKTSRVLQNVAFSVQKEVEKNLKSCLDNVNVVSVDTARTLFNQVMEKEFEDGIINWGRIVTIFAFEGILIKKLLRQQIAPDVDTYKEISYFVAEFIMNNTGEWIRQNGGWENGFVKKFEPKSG
# T2: BFL-1ΔC C4S/C19S (human, UniProt Q16548 1-153)
# T2 construct: range 1-153; Made by site-directed mutagenesis of BFL-1ΔC; also called His-BFL-1ΔC C4S/C19S; C55-only BFL-1; not shown: N-terminal His tag from the pET19b vector
# T2 sequence (looked up): T1 sequence (looked up) with C4S, C19S
# T3: BFL-1ΔC C4S/C19S/C55S (human, UniProt Q16548 1-153)
# T3 construct: range 1-153; Made by site-directed mutagenesis of BFL-1ΔC; also called BFL-1 with no cysteines; not shown: N-terminal His tag from the pET19b vector
# T3 sequence (looked up): T1 sequence (looked up) with C4S, C19S, C55S
# T4: BFL-1ΔC (aa 1-153) (human, UniProt Q16548 1-153)
# T4 construct: also called wild-type BFL-1ΔC; BFL-1 WT
# T4 sequence: T1 sequence (looked up)
# T5: HA-BFL-1ΔC C4S/C19S (human, UniProt Q16548 1-153)
# T5 construct: range 1-153; also called expressed HA-BFL-1ΔC C4S/C19S; not shown: HA tag (pCMV plasmid)
# T5 sequence (looked up): T1 sequence (looked up) with C4S, C19S
# B1: NOXA SAHBA (peptide)
# peptide: AELEVECATQLR[S5]FGD[S5]LNFRQKLL
# modifications: staple 13-17; also: N-terminus PEG-biotin or FITC depending on assay
# notes: Stapled NOXA BH3 peptide (aa 19-43) with native C25; also called WT NOXA SAHB; wild-type NOXA SAHBA
# B2: NOXA SAHBA C25S (peptide)
# peptide: AELEVESATQLR[S5]FGD[S5]LNFRQKLL
# modifications: staple 13-17; also: N-terminus PEG-biotin or FITC depending on assay
# notes: Stapled NOXA BH3 peptide with C25S; also called NOXA C25S SAHB; NOXA C25 SAHB
# B3: NOXA SAHBA F32Y (peptide)
# peptide: AELEVECATQLR[S5]YGD[S5]LNFRQKLL
# modifications: staple 13-17; also: FITC-labelled, site not given here
# notes: member of the group m25; also called NOXA SAHB F32 variant with tyrosine
# B4: BIM SAHBA-3 (peptide)
# peptide: [Nip(3R)](Acryloyl)IAQELR[S5]IGD[S5]FNAYYARR
# modifications: staple 8-12
# notes: also called BIM SAHBA-WH with warhead 3; biotinylated BIM SAHBA-3
# B5: NOXA SAHBA-3 (peptide)
# peptide: [warhead 3]EVESATQLR[S5]FGD[S5]LNFRQKLL
# modifications: staple 11-15; also: biotinylated form carries C-terminal Lys-biotin
# notes: also called NOXA SAHBA-WH with warhead 3; biotinylated NOXA SAHBA-3
# How the values were obtained:
# MCL-1 (Examples 1-4) = biological target: T6, MCL-1 (Examples 1-4) (UniProt Q07820 170-327, limits assumed); assay: fluorescence polarization, FITC-labelled SAHB, protein serially diluted from 1 µM
# T6 construct: also called MCL-I
# T6 sequence (Q07820 170-327 limits assumed): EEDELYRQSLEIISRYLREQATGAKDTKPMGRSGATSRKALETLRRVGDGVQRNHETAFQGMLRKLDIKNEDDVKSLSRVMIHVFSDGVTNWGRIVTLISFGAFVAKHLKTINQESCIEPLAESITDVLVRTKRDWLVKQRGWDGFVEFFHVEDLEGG
# Experimental: (§1) The solution-state equilibrium binding assay was used to determine binding affinities of the stapled peptides to the anti-apoptotic proteins. Proteins were serially diluted from 1 μM, then combined with FITC-labeled SAHB and polarization measured at 5 min on a microplate reader. We then calculated dissociation constants (KD) by nonlinear regression analysis of dose-response curves.
# Bfl-1 (Examples 1-4) = biological target: T1, Bfl-1 (Examples 1-4); assay: as above
# Experimental: as §1
# BFL-1ΔC C4S/C19S [1] = biological target: T2, BFL-1ΔC C4S/C19S; assay: biolayer interferometry (Octet RED384): biotin-PEG-NOXA SAHB on super streptavidin tips, BFL-1ΔC construct in solution
# Experimental: (§2) Excess streptavidin was quenched by incubation with 2 μg/mL biocytin. The tips were then washed with kinetics buffer and soaked in a serial dilution of BFL-1ΔC for 10 min to measure association rate, followed by a 15 min incubation in kinetics buffer to measure dissociation rate. Dissociation constants were calculated using Octet Data Analysis version 9.0.
# BFL-1ΔC C4S/C19S/C55S = biological target: T3, BFL-1ΔC C4S/C19S/C55S; assay: as above
# Experimental: as §2
# BFL-1ΔC (aa 1-153) [2] = biological target: T4, BFL-1ΔC (aa 1-153); assay: as above
# Experimental: as §2
# BFL-1ΔC (aa 1-153) [3] = biological target: T4, BFL-1ΔC (aa 1-153); assay: covalent conjugation with BFL-1 cysteine mutants, gel shift
# HA-BFL-1ΔC C4S/C19S = biological target: T5, HA-BFL-1ΔC C4S/C19S; assay: 293T lysates, 10 µM biotinylated peptide, anti-HA and anti-biotin western
# Experimental: For lysate experiments, cells were trypsinized 24 hours post-transfection, washed with PBS, and lysed by incubation with 1% CHAPS lysis buffer (150 mM NaCl, 50 mM Tris pH 7.4, 100 mM DTT). Protein concentration of the soluble fraction was measured using a BCA kit according to manufacturer's instructions (Thermo Scientific). […] Samples were then boiled in LDS buffer and subjected to western analysis using 1:1000 dilutions of HA (Sigma-Aldrich, #12CA5) and biotin (Abcam, #53494) antibodies. […] After 24 h, cells were trypsinized, washed with PBS, lysed in 1% CHAPS buffer, and the supernatant collected for protein concentration determination by BCA kit. […] The mixtures were then subjected to HA or FLAG (Sigma-Aldrich, F7425) immunoprecipitation, followed by western analysis using 1:1000 dilutions of HA, FLAG, biotin, and BID (Santa Cruz sc-11423) antibodies. […] Cells were harvested and lysed as above, and incubated overnight with anti-HA agarose beads (Pierce). The beads were washed 3 times with lysis buffer, eluted by boiling in LDS buffer, and subjected to western analysis with HA and biotin antibodies.
# BFL-1ΔC C4S/C19S [4] = biological target: T2, BFL-1ΔC C4S/C19S; assay: covalent conjugation, 10:1 peptide:protein, reducing denaturing gel, Coomassie
# Experimental: Processing for gel electrophoresis and Coomassie staining was performed as above.
binder,measurement,setting,value
B1,EC50 (read off the curve),MCL-1 (Examples 1-4),~200 nM
same,EC50 (read off the curve),Bfl-1 (Examples 1-4),~100 nM
same,Kd,BFL-1ΔC C4S/C19S [1],165 nM
same,Kd,BFL-1ΔC C4S/C19S/C55S,118 nM
same,Kd,BFL-1ΔC (aa 1-153) [2],122 nM
B2,Kd,BFL-1ΔC C4S/C19S [1],47.2 nM
same,Kd,BFL-1ΔC C4S/C19S/C55S,58.2 nM
same,Kd,BFL-1ΔC (aa 1-153) [2],46.6 nM
B3,binding result,MCL-1 (Examples 1-4),no binding (tested: 1e-6 M)
same,EC50 (read off the curve),Bfl-1 (Examples 1-4),~200 nM
B4,binding result,BFL-1ΔC (aa 1-153) [3],binds
same,binding result,HA-BFL-1ΔC C4S/C19S,binds
same,binding result,BFL-1ΔC C4S/C19S [4],binds
"[(3S)‑1‑acryloylpyrrolidine‑3‑carboxylic acid]IAQELR[S5]IGD[S5]FNAYYARR (staple 8-12, also called BIM SAHBA-WH, warhead 1) [BIM SAHBA bearing warhead 1 (of FIG. 12B)]",binding result,BFL-1ΔC C4S/C19S [4],binds
"Acryloyl-EVESATQLR[S5]FGD[S5]LNFRQKLL (staple 10-14, also called NOXA SAHBA-WH, warhead 8) [NOXA SAHBA bearing warhead 8 (of FIG. 12B)]",binding result,BFL-1ΔC C4S/C19S [4],binds
"Acryloyl-IAQELR[S5]IGD[S5]FNAYYARR (staple 7-11, also called BIM SAHBA-WH, warhead 8) [BIM SAHBA bearing warhead 8 (of FIG. 12B)]",binding result,BFL-1ΔC C4S/C19S [4],binds
B5,binding result,BFL-1ΔC (aa 1-153) [3],binds
same,binding result,HA-BFL-1ΔC C4S/C19S,binds
same,binding result,BFL-1ΔC C4S/C19S [4],binds
"[warhead 1]EVESATQLR[S5]FGD[S5]LNFRQKLL (staple 11-15; reading uncertain, also called NOXA SAHBA-WH, warhead 1) [NOXA SAHBA bearing warhead 1 (of FIG. 12B)]",binding result,BFL-1ΔC C4S/C19S [4],binds
